T1: EsCas13d, nuclease-dead (Eubacterium siraeum, UniProt B0MS50, R295A;H300A;R849A;H854A)
T1 sequence: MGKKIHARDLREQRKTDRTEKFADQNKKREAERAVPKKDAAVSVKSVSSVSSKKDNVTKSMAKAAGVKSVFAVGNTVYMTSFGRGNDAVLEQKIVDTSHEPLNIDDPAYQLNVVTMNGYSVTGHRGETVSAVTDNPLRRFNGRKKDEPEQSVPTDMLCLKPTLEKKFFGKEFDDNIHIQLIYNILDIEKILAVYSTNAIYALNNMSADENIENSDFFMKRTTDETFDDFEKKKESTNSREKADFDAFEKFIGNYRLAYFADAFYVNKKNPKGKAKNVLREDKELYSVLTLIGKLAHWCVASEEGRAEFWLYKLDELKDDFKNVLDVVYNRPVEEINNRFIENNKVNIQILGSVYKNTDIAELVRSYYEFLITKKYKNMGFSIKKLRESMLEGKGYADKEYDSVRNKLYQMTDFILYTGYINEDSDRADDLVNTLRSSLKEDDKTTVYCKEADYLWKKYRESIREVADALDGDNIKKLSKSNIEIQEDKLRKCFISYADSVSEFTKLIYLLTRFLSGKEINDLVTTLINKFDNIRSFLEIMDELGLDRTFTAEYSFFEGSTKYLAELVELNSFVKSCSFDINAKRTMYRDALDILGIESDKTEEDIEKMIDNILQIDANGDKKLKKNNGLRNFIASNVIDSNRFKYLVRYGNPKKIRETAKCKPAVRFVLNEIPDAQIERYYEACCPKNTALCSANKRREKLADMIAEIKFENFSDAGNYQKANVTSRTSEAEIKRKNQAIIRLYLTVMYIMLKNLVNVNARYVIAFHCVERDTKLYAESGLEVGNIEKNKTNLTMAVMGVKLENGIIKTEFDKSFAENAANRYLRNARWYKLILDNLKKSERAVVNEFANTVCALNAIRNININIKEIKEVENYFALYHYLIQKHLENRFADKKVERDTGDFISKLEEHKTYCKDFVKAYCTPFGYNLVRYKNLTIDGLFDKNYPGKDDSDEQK


Target: T1, EsCas13d, nuclease-dead
Experiment: crRNA (strand 1, pre-loaded); Mg2+; 40 mM Tris-HCl pH 7.5, 150 mM NaCl, 6 mM MgCl2, 1 mM DTT, 0.1% Tween-20, 0.2 mg/ml BSA; 25 C; 10 min per concentration, then washed
Details: tags: His6-TwinStrep-SUMO cleaved; N-terminal SNAP kept (SNAP-Surface 488); label: 3' end held by stalled T7 RNA polymerase

Row | Binder | Kd
1 | target 1 C7A (mixed) RNA 1: CACCCGUGCAAAAAUGCAGGGGUCUAAAACUGAGCGGAUAACCUCUCUAUGG RNA 2: GGGAAUGGAUCCACAUCUACGAAUUCGUACCAUAGAGAGGUUAUACGCUCACCGAGAUCGGAAGAGCACACGU | 7.8 ± 0.4 nM
2 | target 1 A1C,C7A (mixed) RNA 1: CACCCGUGCAAAAAUGCAGGGGUCUAAAACUGAGCGGAUAACCUCUCUAUGG RNA 2: GGGAAUGGAUCCACAUCUACGAAUUCGUACCAUAGAGAGGUUAUACGCUCCCCGAGAUCGGAAGAGCACACGU | 9.8 ± 0.6 nM
3 | target 1 G5A,A14C (mixed) RNA 1: CACCCGUGCAAAAAUGCAGGGGUCUAAAACUGAGCGGAUAACCUCUCUAUGG RNA 2: GGGAAUGGAUCCACAUCUACGAAUUCGUACCAUAGAGCGGUUAUCCACUCACCGAGAUCGGAAGAGCACACGU | 81 ± 34 nM
4 | target 1 insU 3' of 22,insU 3' of 21 (mixed) RNA 1: CACCCGUGCAAAAAUGCAGGGGUCUAAAACUGAGCGGAUAACCUCUCUAUGG RNA 2: GGGAAUGGAUCCACAUCUACGAAUUCGUACUCUAUAGAGAGGUUAUCCGCUCACCGAGAUCGGAAGAGCACACGU | 85 ± 28 nM
5 | target 1 A1U,C7A (mixed) RNA 1: CACCCGUGCAAAAAUGCAGGGGUCUAAAACUGAGCGGAUAACCUCUCUAUGG RNA 2: GGGAAUGGAUCCACAUCUACGAAUUCGUACCAUAGAGAGGUUAUACGCUCUCCGAGAUCGGAAGAGCACACGU | 9.4 ± 1 nM
6 | target 1 insG 3' of 19,insG 3' of 4 (mixed) RNA 1: CACCCGUGCAAAAAUGCAGGGGUCUAAAACUGAGCGGAUAACCUCUCUAUGG RNA 2: GGGAAUGGAUCCACAUCUACGAAUUCGUACCAUGAGAGAGGUUAUCCGCGUCACCGAGAUCGGAAGAGCACACGU | 34.6 ± 1.9 nM
7 | target 1 C7A,G15U (mixed) RNA 1: CACCCGUGCAAAAAUGCAGGGGUCUAAAACUGAGCGGAUAACCUCUCUAUGG RNA 2: GGGAAUGGAUCCACAUCUACGAAUUCGUACCAUAGAUAGGUUAUACGCUCACCGAGAUCGGAAGAGCACACGU | 19.6 ± 2.1 nM
8 | target 1 insU 3' of 14,insG 3' of 1 (mixed) RNA 1: CACCCGUGCAAAAAUGCAGGGGUCUAAAACUGAGCGGAUAACCUCUCUAUGG RNA 2: GGGAAUGGAUCCACAUCUACGAAUUCGUACCAUAGAGAUGGUUAUCCGCUCAGCCGAGAUCGGAAGAGCACACGU | 45 ± 4 nM
9 | target 1 C6G,C7A (mixed) RNA 1: CACCCGUGCAAAAAUGCAGGGGUCUAAAACUGAGCGGAUAACCUCUCUAUGG RNA 2: GGGAAUGGAUCCACAUCUACGAAUUCGUACCAUAGAGAGGUUAUAGGCUCACCGAGAUCGGAAGAGCACACGU | 8.9 ± 0.4 nM
10 | target 1 insG 3' of 11,insC 3' of 3 (mixed) RNA 1: CACCCGUGCAAAAAUGCAGGGGUCUAAAACUGAGCGGAUAACCUCUCUAUGG RNA 2: GGGAAUGGAUCCACAUCUACGAAUUCGUACCAUAGAGAGGUGUAUCCGCUCCACCGAGAUCGGAAGAGCACACGU | 51 ± 8 nM
11 | target 1 insU 3' of 14,insC 3' of 1 (mixed) RNA 1: CACCCGUGCAAAAAUGCAGGGGUCUAAAACUGAGCGGAUAACCUCUCUAUGG RNA 2: GGGAAUGGAUCCACAUCUACGAAUUCGUACCAUAGAGAUGGUUAUCCGCUCACCCGAGAUCGGAAGAGCACACGU | 42 ± 7 nM
12 | target 1 insU 3' of 14,insA 3' of 2 (mixed) RNA 1: CACCCGUGCAAAAAUGCAGGGGUCUAAAACUGAGCGGAUAACCUCUCUAUGG RNA 2: GGGAAUGGAUCCACAUCUACGAAUUCGUACCAUAGAGAUGGUUAUCCGCUCAACCGAGAUCGGAAGAGCACACGU | 43 ± 6 nM
13 | target 1 insA 3' of 22,insG 3' of 14 (mixed) RNA 1: CACCCGUGCAAAAAUGCAGGGGUCUAAAACUGAGCGGAUAACCUCUCUAUGG RNA 2: GGGAAUGGAUCCACAUCUACGAAUUCGUACACAUAGAGAGGGUUAUCCGCUCACCGAGAUCGGAAGAGCACACGU | 21.7 ± 3.2 nM
14 | target 1 insC 3' of 20,insA 3' of 5 (mixed) RNA 1: CACCCGUGCAAAAAUGCAGGGGUCUAAAACUGAGCGGAUAACCUCUCUAUGG RNA 2: GGGAAUGGAUCCACAUCUACGAAUUCGUACCACUAGAGAGGUUAUCCGACUCACCGAGAUCGGAAGAGCACACGU | 7.3 ± 1.1 nM
15 | target 1 insC 3' of 5,insC 3' of 5 (mixed) RNA 1: CACCCGUGCAAAAAUGCAGGGGUCUAAAACUGAGCGGAUAACCUCUCUAUGG RNA 2: GGGAAUGGAUCCACAUCUACGAAUUCGUACCAUAGAGAGGUUAUCCGCCCUCACCGAGAUCGGAAGAGCACACGU | 25.7 ± 3.2 nM
16 | target 1 insG 3' of 19,insU 3' of 6 (mixed) RNA 1: CACCCGUGCAAAAAUGCAGGGGUCUAAAACUGAGCGGAUAACCUCUCUAUGG RNA 2: GGGAAUGGAUCCACAUCUACGAAUUCGUACCAUGAGAGAGGUUAUCCUGCUCACCGAGAUCGGAAGAGCACACGU | 82 ± 9 nM
17 | target 1 del9,del19 (mixed) RNA 1: CACCCGUGCAAAAAUGCAGGGGUCUAAAACUGAGCGGAUAACCUCUCUAUGG RNA 2: GGGAAUGGAUCCACAUCUACGAAUUCGUACCAAGAGAGGUUUCCGCUCACCGAGAUCGGAAGAGCACACGU | 86 ± 33 nM
18 | target 1 insU 3' of 21,insC 3' of 15 (mixed) RNA 1: CACCCGUGCAAAAAUGCAGGGGUCUAAAACUGAGCGGAUAACCUCUCUAUGG RNA 2: GGGAAUGGAUCCACAUCUACGAAUUCGUACCUAUAGAGCAGGUUAUCCGCUCACCGAGAUCGGAAGAGCACACGU | 55 ± 7 nM
19 | target 1 insG 3' of 19,insA 3' of 8 (mixed) RNA 1: CACCCGUGCAAAAAUGCAGGGGUCUAAAACUGAGCGGAUAACCUCUCUAUGG RNA 2: GGGAAUGGAUCCACAUCUACGAAUUCGUACCAUGAGAGAGGUUAUACCGCUCACCGAGAUCGGAAGAGCACACGU | 57 ± 7 nM
20 | target 1 U10G,A20U (mixed) RNA 1: CACCCGUGCAAAAAUGCAGGGGUCUAAAACUGAGCGGAUAACCUCUCUAUGG RNA 2: GGGAAUGGAUCCACAUCUACGAAUUCGUACCUUAGAGAGGUGAUCCGCUCACCGAGAUCGGAAGAGCACACGU | 60 ± 18 nM
21 | target 1 G13U,C21U (mixed) RNA 1: CACCCGUGCAAAAAUGCAGGGGUCUAAAACUGAGCGGAUAACCUCUCUAUGG RNA 2: GGGAAUGGAUCCACAUCUACGAAUUCGUACUAUAGAGAUGUUAUCCGCUCACCGAGAUCGGAAGAGCACACGU | 10.5 ± 0.9 nM
22 | target 1 U10G,C21U (mixed) RNA 1: CACCCGUGCAAAAAUGCAGGGGUCUAAAACUGAGCGGAUAACCUCUCUAUGG RNA 2: GGGAAUGGAUCCACAUCUACGAAUUCGUACUAUAGAGAGGUGAUCCGCUCACCGAGAUCGGAAGAGCACACGU | 11.7 ± 0.8 nM
23 | target 1 insG 3' of 19,insG 3' of 14 (mixed) RNA 1: CACCCGUGCAAAAAUGCAGGGGUCUAAAACUGAGCGGAUAACCUCUCUAUGG RNA 2: GGGAAUGGAUCCACAUCUACGAAUUCGUACCAUGAGAGAGGGUUAUCCGCUCACCGAGAUCGGAAGAGCACACGU | 75 ± 16 nM
24 | target 1 U8G,A18G (mixed) RNA 1: CACCCGUGCAAAAAUGCAGGGGUCUAAAACUGAGCGGAUAACCUCUCUAUGG RNA 2: GGGAAUGGAUCCACAUCUACGAAUUCGUACCAUGGAGAGGUUAGCCGCUCACCGAGAUCGGAAGAGCACACGU | 66 ± 21 nM
25 | target 1 insA 3' of 15,insC 3' of 9 (mixed) RNA 1: CACCCGUGCAAAAAUGCAGGGGUCUAAAACUGAGCGGAUAACCUCUCUAUGG RNA 2: GGGAAUGGAUCCACAUCUACGAAUUCGUACCAUAGAGAAGGUUACUCCGCUCACCGAGAUCGGAAGAGCACACGU | 9 ± 0.9 nM
26 | target 1 C2U,A14G (mixed) RNA 1: CACCCGUGCAAAAAUGCAGGGGUCUAAAACUGAGCGGAUAACCUCUCUAUGG RNA 2: GGGAAUGGAUCCACAUCUACGAAUUCGUACCAUAGAGGGGUUAUCCGCUUACCGAGAUCGGAAGAGCACACGU | 15 ± 0.7 nM
27 | target 1 complement block 3-8 (mixed) RNA 1: CACCCGUGCAAAAAUGCAGGGGUCUAAAACUGAGCGGAUAACCUCUCUAUGG RNA 2: GGGAAUGGAUCCACAUCUACGAAUUCGUACCAUAGAGAGGUUAAGGCGACACCGAGAUCGGAAGAGCACACGU | 9.9 ± 0.4 nM
28 | target 1 A14C,G15U (mixed) RNA 1: CACCCGUGCAAAAAUGCAGGGGUCUAAAACUGAGCGGAUAACCUCUCUAUGG RNA 2: GGGAAUGGAUCCACAUCUACGAAUUCGUACCAUAGAUCGGUUAUCCGCUCACCGAGAUCGGAAGAGCACACGU | 35 ± 6 nM

Reference: paper PMC10786891, “Massively parallel profiling of RNA-targeting CRISPR-Cas13d”
